Laboratory results taken from the supplement of paper PMC9170038.

Test system: MS2 coat protein
Assay: apparent KD of MS2 coat protein; higher = weaker reporter binding
Details: Eterna round: R107; input ligand: none
Method in brief: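 Designed RNA switches were made by on-chip transcription from Illumina sequencing clusters and then titrated with SNAP-549-labelled MS2 coat protein. Twofold steps ran from 0.7 or 1.5 nM to 3 µM, each lasting 0.8–1.5 h early and 10–20 min late, in 100 mM Tris-HCl pH 7.5, 80 mM KCl, 4 mM MgCl2, without or with constant ligand. Apparent KD is the per-design median of normalised cluster binding-curve fits.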

Row | Sequence | apparent KD of MS2 coat protein
1 | CUCUCAUGAACAUGAGGAUCACCCAUGUAACGAGGACCGGUACGGCCGCCACUCGAACGUGGAUACCAAUCGAGUGGGUGAGAGA [Tryp A Ex t5] | 21.5 nM
2 | UGACAUUGCUCAGAUACCAGACAUGAGCAUCAGCCAUGUGCCAACAAGUACAUAAUAAAUGUCCCUUGGCAGCUGAGCAAUGUCU [TheoBX 16 #MS2Left #Theo2 #AlternativeMS2] | 13 nM
3 | UAUGCACAUGAGGAUCACCCAUGUAUGGAAGGAGCGGUGAAUAAACCAGGUAGGUCGCCAUUGUGAGGGUCAUCUAUGUAAUCGU [Exclusion - Arginine A (Freestyle 4)] | 85.3 nM
4 | AGACAUGAGGAUCACCCAUGUAGUAUGGAUACCAGAUGUAGAUUAGUCCCUUGGCAGCUGUGCUGAAGUGAUGCAUUGCUCCUAG [#15 Exclusion-TheophyllineA] | 22.1 nM
5 | UGUAUGGACUGAAGGAGCGGAUGAUAUCAUGAGGAUCACCCAUGGAAUAAGGCGAAAGCCAUCCAGGUAGGUCGCAGUCCAUACU | 72.7 nM
6 | CAAUUUAGAAAACUAAAUUGAGUGGGUGAACGAGGACCGGUACGGCCGCCACUCGGACAUGAGGAUCACCCAUGUCCAUGUGAAA [AstrosExyTryA#23] | 14.8 nM
7 | ACUAGUUGUGCAGAUACCAGGCACGAGGAUCACCCGUGUUUGGGAUGUUCGCAUCUUCCUGUCCCUUGGCAGCUGUACAUCUAGA [Omei Theo B Exc v9] | 30.9 nM
8 | GUAUCUAUGUGAAAUAGAUAUAUAACUGAAGGAGCGUCAUUAAGGACAGGUAGGUCGCAGAGCACCUGAGGAUCACCCAGGUAGG [Arg A SS s1] | 25.7 nM
9 | UACUUGCUGACGGCCGCCACUAGAACAUGAGGAUCACCCAUGUAUGGCGGCCGAAUCCUCAUGACUAGGACCGGGUCAGCAAGAU [(Trp1)-(Ms2)-(T)'-(M)'-(Trp2)_Design2] | 8.09 nM
10 | ACGAUAGCACACGAGGAUCACCCGUGUGAUACCAGCCUGGAAACAGGCCCUUGGCAGCACACAAUAAAAGUGUAACUAUCGAAUA [TheoAX4 #MicroSwitchBubble #AlternativeMS2] | 54.2 nM
11 | ACAUGAGGAUCACCCAUGUAUUACCGGGAAGGAGCGCGUGAAAACGCAGGUAGGUCGCUCGGCGUCGUGCUGUAAAGCACGACGA [#1 Same State - Arginine A Attempt #25 (HarryS)] | 11.5 nM
12 | GCUGCUUUGGGAAGGAGCGCUGCGUUAUCAUGUUGGACAUGAGGAUCACCCAUGUAAAUGUAGCAGGUAGGUCGCUUAGGGCAGC [EAP NP+V+V2 #15] | 31.8 nM
13 | UGUAUGUGAUCUGAUACCAGCUUAAUAACAUGAGCAUCAGCCAUGUGGAGCGGAAACGCUAGCCCUUGGCAGCAGAUCGCAUACU [Denovo 11 #StaticStem #AlternativeMS2] | 143 nM
14 | ACAUGAGGAUCACCCAUGUGAAGCAGGGUACGAGGACCGGUACGGCCGCCACUCGAGCAUUAUAACGAGUGAAUGGCAACGAUGU [whbob_Ex_trypto A_2s16] | 12.4 nM
15 | CAGUGAGAACGAAGGAGCGCUGAAUGAUGUGGACAUGAGGAUCACCCAUGUUAAGUCCAAUGGCAGGUAGGUCGCGUAACACUAG [Same State - Arginine B] | 15.8 nM
16 | UGUACCAUGUCGGCCGCCACUUGAAAUAAACAAGAGGAUCACCCUUGUGACGUCAAAGACGUCUCAAGGACCGGGACAUGGUACU [TryBS Zipper #StaticStem #Zipper] | 313 nM
17 | CGGGUUCGGGCGGCCGCCACUUUGAUUGGGUGUGACAUGAGGAUCACCCAUGUUGUGGGUGAUCGGAGGACCGGGUUUGGGCUUG [Fidorka] | 65.6 nM
18 | AUACAUGAGGAUCACCCAUGUUAUAGUGAAGGAGCGACGUUUAUGUCAGGUAGGUCGCACUGUUGUUUAAUGAUUCUUGGAUCUU [#21 Exclusion - Arginine A] | 13.2 nM
19 | ACAUGAGGAUCACCCAUGUAUGAUGUUCCUCGAGGACCGGUACGGCCGCCACUCGAACGAGUGGCGCGCGAGUGCGCACUCGCGC [aWa] | 15.7 nM
20 | ACAUGAGGAUCACCCAUGUAAAUAACGGAAGGAGCGUGCGAAAGCACAGGUAGGUCGCCGAUAUAAAUAUUGGGUAUUAUAUUAU [#28 Exclusion - Arginine A] | 31.8 nM

Same assay, conditions: Eterna round: R107; input ligand: theophylline 20 uM

Row | Sequence | apparent KD of MS2 coat protein
21 | UGUAACAUGAGGAUCACCCAUGUGAGUGAUACCAGACUAGUAUUAGUCCCUUGGCAGCACGCUGGGCGAGUGUAUAGUCUAUGCG [Same State - Theophylline A (Freestyle 15)] | 125 nM
22 | AUCGUACCUGAGGAUACCAGCAUGUGAUCAUAACAUGAGGAUCACCCAUGUAAUCAGUGAUGCCCUUGGCAGCUUGGUCGGUACA [Same State - Theophylline B (Freestyle 10)] | 74.3 nM
23 | CAUAUUGUAACUGAUACCAGUGUACUGACAUGAGGAUCACCCAUGUUGGGUUUUGUUGUACACCCUUGGCAGCAGAAUCAAUAUG [AstrosExyTheB#4] | 74.2 nM
24 | AUUAAGGAUAUAUAGAAGGCGGAGAAGAGACGAGGACCGGUACGGCCGCCACUCGUGUUAGUUAACAUGAGGAUCACCCAUGUAA [Turkey 2] | 76.9 nM
25 | CUCUCAUGAACAUGAGGAUCACCCAUGUAACGAGGACCGGUACGGCCGCCACUCGAACGUGGAUACCAAUCGAGUGGGUGAGAGA [Tryp A Ex t5] | 25.2 nM
26 | AAAAUAAAAUAAAAGGUGGAAAUAAGGCGGCGAGGACCGGUACGGCCGCCACUCGCGUACAUGAGGAUCACCCAUGUCUGAAAAU [Same State - Tryptophan A (Freestyle 1)] | 28.2 nM
27 | UGACAUUGCUCAGAUACCAGACAUGAGCAUCAGCCAUGUGCCAACAAGUACAUAAUAAAUGUCCCUUGGCAGCUGAGCAAUGUCU [TheoBX 16 #MS2Left #Theo2 #AlternativeMS2] | 20.5 nM
28 | UAUGCACAUGAGGAUCACCCAUGUAUGGAAGGAGCGGUGAAUAAACCAGGUAGGUCGCCAUUGUGAGGGUCAUCUAUGUAAUCGU [Exclusion - Arginine A (Freestyle 4)] | 125 nM
29 | AGACAUGAGGAUCACCCAUGUAGUAUGGAUACCAGAUGUAGAUUAGUCCCUUGGCAGCUGUGCUGAAGUGAUGCAUUGCUCCUAG [#15 Exclusion-TheophyllineA] | 33.5 nM
30 | ACGUGGAAAAUUUGUGGUGCUGCCUCAGGCCGAGGACCGGUACGGCCGCCACUCGUACAUGAGGAUCACCCAUGUCGAGUCACUG [Isanso] | 48 nM
31 | AUAUGAUCAUGUGAUACCAGAAAUGGUAGUCUUCACUGGAUUACAUGAGGAUCACCCAUGUUCCCUUGGCAGCAUAUGAUCAUAU [#03 Exclusion-TheophyllineB] | 68.2 nM
32 | UGACAUUGCUCAGAUACCAGACAUGAGGAUCACCCAUGUACCAAGGUACGAAAAUAACAUGUCCCUUGGCAGCUGAGCAAUGUCU [First try 2 #MS2Left #Theo2] | 27.6 nM
33 | UGUAUGGACUGAAGGAGCGGAUGAUAUCAUGAGGAUCACCCAUGGAAUAAGGCGAAAGCCAUCCAGGUAGGUCGCAGUCCAUACU | 131 nM
34 | CAAUUUAGAAAACUAAAUUGAGUGGGUGAACGAGGACCGGUACGGCCGCCACUCGGACAUGAGGAUCACCCAUGUCCAUGUGAAA [AstrosExyTryA#23] | 15.8 nM
35 | ACUCGGUAUGUCUAAUACCGAGAGUAUGAUACCAGUAUGGUGACAUACCCUUGGCAGCAUGGGACAUGAGGAUCACCCAUGUGUU [SSThA NP+V+V2 #10 Same Structure] | 465 nM
36 | ACUAGUUGUGCAGAUACCAGGCACGAGGAUCACCCGUGUUUGGGAUGUUCGCAUCUUCCUGUCCCUUGGCAGCUGUACAUCUAGA [Omei Theo B Exc v9] | 54.3 nM
37 | GUAUCUAUGUGAAAUAGAUAUAUAACUGAAGGAGCGUCAUUAAGGACAGGUAGGUCGCAGAGCACCUGAGGAUCACCCAGGUAGG [Arg A SS s1] | 27 nM
38 | UACUUGCUGACGGCCGCCACUAGAACAUGAGGAUCACCCAUGUAUGGCGGCCGAAUCCUCAUGACUAGGACCGGGUCAGCAAGAU [(Trp1)-(Ms2)-(T)'-(M)'-(Trp2)_Design2] | 12.5 nM
